Assay results as given in the nanobody polyreactivity screen of Harvey et al. (2022).

Test: yeast display, Sf9 membrane polyspecificity reagent, FACS + sequencing; frameworks hold sequencing errors
Method in brief: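 In a synthetic yeast display library (Saccharomyces cerevisiae BJ5465), nanobody expression was induced with galactose for 36–48 hours. FACS gates were set low and high (top ~1%) using anti-HA fluorescence for expression and streptavidin fluorescence for binding of the Sf9 membrane reagent. Each polyreactivity label is drawn from the gate of origin.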

| Sequence | polyreactivity (PSR sort gate) |
| --- | --- |
| QVQLVVSGGGLVQAGGSLRLSCAASGFIFYRYAMGWYRQAPGKEWELVAAISRSGGTTYYADSVKGRFTISRDNAKNTVYLQKNSLKPEDTAVYYCNVKRGTIGGYYYWGQGTQVTVSS | high polyreactivity |
| QVQLVESGGGLVQAGGSLRLSCAASGSIFDYNAMGWYRQAPGKERELVASIRWSGGRTYYADSVKGRFTISRDNAKNTVYLQMNSLKPEDTAVYYCNKGLFSTGNIPYYLIVYLEYNYWGQGTQVTVSS | low polyreactivity |
| QVQLVESGGGLVQAGGSLRLSCAASGSNFAINAMGWYRQAPGKERELVAAIRYSTGRTYYADSVKGRFTISRDNAKNTVYLQMNSLKPEDTAVYYCAALGFTKYGSRFDYWGQGTQVTVSS | high polyreactivity |
| QVQLVESGGGLVQAGGSLRLSCAASGRTFPVYSMGWYRQAPGKERELVDVITTRVTSTYYADSVKGRFTISRDNAKNSVYLQMNSLKPEDTAVYYCNARTAYTGNYGPPKGGYWGQGTQVTVSS | high polyreactivity |
| QVQLVESGGGLVQAGGSLRLSCAASGSIFPHNAMGWYRQAPGKERALVASITSRGGITYYADSVKGRFTISRDNAKNTVYLQMNSLKPEDTAVYYCNGVLYHYSPTDSWITYDYWGQGTQVTVSS | low polyreactivity |
| QVQLVESGGGLVQAGGSLRLSCAASGSIFDYNGMGWYRQAPGKERELVATITLSTARTYYADSVKGRFTISRDNAKNTVYLQMNSLKPEDTAVYYCATRYPKFRRRNYWGQGTQVTVSS | high polyreactivity |
| QVQLQESGGGLVQAGGSLRQSYAASGYIFPSLAMGWYRQAPGKEREFVAAIGRGSTNNYADSVKGRFTISRDNAKNTAYQQMNSLNPEDTAVYYCAAAASPLTRHLYWGQGTQVTVSS | low polyreactivity |
| QVQLVESGGGLDQAGGSLRLSCAASGSIFGYAMGWYRQAPGKERELVAAIRWGGGSTYYADSVKGRFTISRDNAKKTVYLQMNSLKPEDTAVYYCAARYYRPGVLANYYWGQGTQVTVSS | high polyreactivity |
| QVQLVESGGGLVQAGGSLRLSCAASGGTFRNYAMGWYRQAPGKERELVAGITSGSRTNYADSVKGRFTISRDNAKNTVYLQMNSLKPEDTAVYYCNARGNYVGRPYPVKHAYRSYYWGQGTQVTVSS | high polyreactivity |
| QVQLVESGGGLVQAGGSLRLICAASGSTLYTYAMGWYRQAPGKERELVATISWSGSSTYYADSVKGRFTISRDNAKNTVYLQMNSLKPEDTAVYYCAAPYHYWYRLDYWGQGTQVTVSS | high polyreactivity |
| QVQLVESGGGLVQAGGSLRLSCAASGSIFNANAMGWYRPAPGKERELVAGIRSGSSTNYADSVKGRFTISRDNAKNTVYLQMNSLKPEDTAVYYCATEGYWVYGFDDEYWGQGTQVTVSS | low polyreactivity |
| QVQLEESGGGLVQAGGSLRLSCAASGFTIIRYAMGWYRQAPGKERELVATISRRGASTYYADSVKGRFTISRANAKNTVYLQMNSLKPEDTAVYYCAKRTYSRKFRGAYNYWGQGTQVTVSS | high polyreactivity |
| QVQLVESGGDLVQAGGSLRLSCAASGSIFYINAMGWYRQAPGKERELVASISYSGTSTYYADSVKGRFTISRDNAKNTFFLQMNSLKPEDTAVYYCNAEDTAGAGDGYWGEGTQVTVSS | low polyreactivity |
| QVQLVESGGGLVQAGGSLRLSCAASGFIFTQYAMGWYRPAPGKEWELVAAITRSGGRTYYADSVKGRFTISRDNAKNTVYIQMNSLKPEDTAVYYCAVDTVTRTVLVYGDRNDSWGQGTQVTVSS | high polyreactivity |
| QVQLVESRGGLVQAGGSLRLSCAASGFTFQRYAMGWYRQAPGKERELVAAINRSGGNTHYADSVKGRFTISRDNAKNTVYLQMNSLKPDDTAVYYCAVGTPASVGHYTYDYWGQGTQVTVSS | high polyreactivity |
| QVQLVESGGGLVQAGGSLRLSCAASGRTFVYYAMVWYRQAPGKERELVATISRRGGGTYYADSVKGRFTISRDNAKNTVYLQMNSLKPEDTAVYYCNAKWTSHGTYAEDYWGQGTQVTVSS | high polyreactivity |
| QVQLVESGGGLVQAGGSLRLSCAASGITFDGYAMGWDRQAPGKERELVAVISWSAGSTYADSVKGRFTISRDNAKNTVYLQMNSLKPEDTAVYYGNARTTYRSSRYRRYEYWGQGTQVTVSS | high polyreactivity |
